Test results as given in publication PMC10976746, “Iguratimod, an allosteric inhibitor of macrophage migration inhibitory factor (MIF), prevents mortality and oxidative stress in a murine model of acetaminophen overdose” (Molecular Medicine, 2024).

Target: T1, Human macrophage migration inhibitory factor (MIF) (human), P14174
T1 chain: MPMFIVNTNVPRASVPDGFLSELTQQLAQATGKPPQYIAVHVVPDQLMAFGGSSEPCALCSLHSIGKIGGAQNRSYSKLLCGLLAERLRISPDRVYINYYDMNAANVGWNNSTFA
Assay: crystal structure; MIF (~18 mg/mL) co-crystallised with the small molecule T-614 at 1:3 protein-inhibitor molar ratio; hanging drop vapor diffusion; 20 mM Tris HCl pH 7.5, 2 M (NH4)2SO4, 3% 2-propanol; 20 C
Conditions: remark: other sources report otherwise

B1: Human macrophage migration inhibitory factor (MIF), P14174 1-115 (natural protein)
chain: T1 chain
Work on B1 yielded a stoichiometry N of 3.
